According to article PMC2883168:

Target: human FGFR1-IIIb (human)
Assay: SPR

Sequence of human FGFR1-IIIb (human) (P11362 22-822): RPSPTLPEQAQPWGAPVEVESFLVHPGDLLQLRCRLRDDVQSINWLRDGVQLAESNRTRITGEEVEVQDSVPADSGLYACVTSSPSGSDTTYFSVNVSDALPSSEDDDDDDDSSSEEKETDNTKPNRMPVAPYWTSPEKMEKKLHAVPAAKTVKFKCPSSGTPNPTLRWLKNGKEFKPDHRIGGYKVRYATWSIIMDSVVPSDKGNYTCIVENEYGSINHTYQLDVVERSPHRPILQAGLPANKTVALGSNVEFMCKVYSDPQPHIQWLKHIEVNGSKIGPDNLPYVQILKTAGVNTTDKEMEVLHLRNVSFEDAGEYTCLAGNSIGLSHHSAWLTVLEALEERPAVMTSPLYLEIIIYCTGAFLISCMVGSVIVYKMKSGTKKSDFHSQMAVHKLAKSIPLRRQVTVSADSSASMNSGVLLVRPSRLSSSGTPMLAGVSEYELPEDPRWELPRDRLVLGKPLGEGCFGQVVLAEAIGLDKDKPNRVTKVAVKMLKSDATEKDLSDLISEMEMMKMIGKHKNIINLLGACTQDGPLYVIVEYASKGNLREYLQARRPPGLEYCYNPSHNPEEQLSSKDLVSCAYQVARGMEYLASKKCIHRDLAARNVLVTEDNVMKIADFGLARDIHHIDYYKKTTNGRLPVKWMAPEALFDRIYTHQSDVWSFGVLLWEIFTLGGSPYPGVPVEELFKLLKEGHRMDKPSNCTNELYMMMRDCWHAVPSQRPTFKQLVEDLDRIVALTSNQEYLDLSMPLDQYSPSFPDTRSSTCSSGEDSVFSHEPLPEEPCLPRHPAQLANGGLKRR

Kd: 952 nM
Substance: native, recombinant FGF-2 (from UniProt P09038 1-288) (ligand)
